Experimental findings from patent publication US20230265187A1 (published 2023) are described below.

Numbering of substitutions follows the chain as printed.

B1: 43586p1.2.B8 (scFv, V domains shown)
VH: EVQLLESGGGLVQPGGSLRLSCAASGFTFTSYLMSWVRQAPGKGLEWVSTITWDGDRTYYADSVKGRFTISRDNSKNTLYLQMNSLRVGDTAVYYCAKHWTVFQYGMDVWGQGTTVTVSS
VL: QSVLTQPASASGTPGQRVTITCSGTISNIETKYVSWYQQLPGTAPKLLIYGNHQRPSGVPDRFSGSKSGTSASLAISGLQSEDEADYYCASWENDLKSWVFGGGTKLTVL
B2: 43586p1.2.C9 (scFv, V domains shown)
VH: EVQLLESGGGLVQPGGSLRLSCAASGFTFDDYVMSWVRQAPGKGLEWVSLINWNGDKTYYADSVKGRFTISRDNSKNTLYLQMNSLRAEDTAIYYCAKHWIVFQYGMDVWGQGTTVTVSS
VL: B1 VL with A8P, T21S, T25S, G51N, N52S, H53D, A90V, E93D, N94A, D95S
B3: 43586p2.D06 (scFv, V domains shown)
VH: EVQLLESGGGLVQPGGSLRLSCAASGFTFSSYWMNWVRQAPGKGLEWVSGIYSGGTTYYADSVKGRFTISRDNSKNTLYLQMNSLRAEDTAVYYCTRENWKENNAMDVWGQGTTVTVSS
VL: QSVLTQPPSASGTPGQRVTISCSGVTSNIASYHVYWYQQLPGTAPKLLIYLNSQRPSGVPDRFSASKSGTSASLAISGLQSEDEADYYCATWDGSLNGWVFGGGTKLTVL
B4: 43586p2.G02 (scFv, V domains shown)
VH: B3 VH
VL: B3 VL with L96Q
B5: 43586p1.2.C5 (scFv, V domains shown)
VH: EVQLLESGGGLVQPGGSLRLSCAASGFTVSDHYMSWVRQAPGKGLEWVSTTSSTSWKNYTYYADSVKGRFSISRDNSENTLYLQMNGLRAEDTAVYYCAKGSYGMDVWGQGTTVTVSS
VL: QSVLTQPPSASGTPGQRVTISCSGSNFNIGTKYLYWYQQLPGTAPKLLIYLDSQRPSGVPDRFSTSKPGTSASLAISGLQSEDEADYYCALWDDHLHGWVFGGGTKLTVL
B6: 43586p1.1.C2 (scFv, V domains shown)
VH: EVQLLESGGGLVQPGGSLRLSCAASGFTFSDYYMNWVRQAPGKGLEWVSSINWNGGTTYYADSVKGRFTISRDNSRNTLYLQMNSLRAEDTAVYYCAKDQNWNFYYGMDVWGQGTTVTVSS
VL: QSVLTQPPSASGTPGQRVTISCSGGSSNIGTNYVSWYQQLPGTAPKLLLYKEDQRPSGVPDRFSGSKSGTSASLAISGLQSEDEADYYCATWDGSLRSWVFGGGTKLTVL
B7: 43586p1.1.G9 (scFv, V domains shown)
VH: EVQLLESGGGLVQPGGSLRLSCAASGFTFTTYAMSWVRQAPGKGLEWVAGISYIGSDKYYADSVKGRLTISRDNSKNTLYLQMDSLRAEDTAVYYCAKHLTGGTTDYYYYGMDVWGQGTTVTVS
VL: QSVLTQPPSASGTPGQRVTISCSGSTSNIGTSRYVHWYQHLPGTAPKLLIYLDSQRPSGVPDRFSASKSGTSASLAISGLQSEDEADYYCSAWDDSLSAWVFGGGTKLTVL
B8: 43586p2.B02 (scFv, V domains shown)
VH: EVQLLESGGGLVQPGGSLRLSCAASGFTFTSYAMSWVSQAPGKGLEWVAGISYDGSSKYYADSVKGRLTISRDNSKNTLYLQMNSLRAEDTAIYYCAKHLTGGTTDYYYYAMDVWGQGTTVTVSS
VL: B7 VL with T26R, S32N, H40Q, L52G, D53N, S54H, A66G, S91A
B9: 43586p2.C09 (scFv, V domains shown)
VH: B8 VH with A23T, S57I
VL: B7 VL with S32N, H40Q, L41F, L52G, D53T, S54D, Q55R, P61S, A66G, S91A
B10: 43586p1.1.A7 (scFv, V domains shown)
VH: B8 VH with S38R, S57I, K58Q, Y80N, E89G, I93V, A111G
VL: QSVMTQPPSASGTPGQRVTISCSGSSSNIGTNRYVHWYKQVPGTAPKLLIYGNHQRPSGVPDRFSGSKSGTSASLAISGLQSEDEADYYCAAWDGSLSGWVFGGGTKLTVL
B11: 43645p1.D7 (scFv, V domains shown)
VH: EVQLLESGGGLVQPGGSLRLSCAASGFTFSRNSMSWVRQAPGKGLEWVSTINSGSSYTYYADSVKGRFTISRDNSKNTLYLQMNSLRAEDTAVYYCAKDNCNGYHCYGMDVWGLGTTVTVSS
VL: QSVLTQPPSASGTPGQRVTISCSGSTSNVGDHYVHWYQQLPGTAPKLLIYKDDQRPSGVPDRFSGSKSGTSASLAISGLQSEDEADYYCSTWDNTLNGWVFGGGTKLTVL

T2 sequence (A0A7N9I9V4 entry or part of it): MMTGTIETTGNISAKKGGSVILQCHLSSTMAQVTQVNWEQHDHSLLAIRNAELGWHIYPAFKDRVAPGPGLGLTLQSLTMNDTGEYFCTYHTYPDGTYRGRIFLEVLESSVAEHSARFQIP

The first experiment concerns the target T1, his-tagged murine TIGIT (Acro Biosystems #TIT-M52E6) (murine, UniProt P86176 29-148, limits assumed).
T1 construct: Bought protein; also called mouse his-tagged TIGIT; not shown: his tag
T1 sequence (looked up): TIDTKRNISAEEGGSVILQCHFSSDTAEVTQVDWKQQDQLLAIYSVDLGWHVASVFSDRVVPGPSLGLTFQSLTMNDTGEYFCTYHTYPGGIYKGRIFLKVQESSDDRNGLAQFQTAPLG
Briefly: SPR (Carterra LSA), scFv-Fc captured, His-TIGIT analyte. As for the experimental part: (§1) Binding affinities of anti-TIGIT antibodies to human, cyno, and murine TIGIT were measured by Surface Plasmon Resonance (SPR) on a Carterra LSA instrument. Goat anti-human Fc antibody was amine coupled to a HC30M chip. ScFv-Fc supernatants were diluted 30-fold with HBSTE and were captured by the anti-human Fc coupled HC30M chip. A 1:2 dilution series of his-tagged human TIGIT, starting at 400 nM, was injected onto the chip for binding. A dilution series was also carried out for cyno TIGIT and murine TIGIT. Data were analyzed using the Carterra™ Kinetics software.
One may read the Kd as the constant that tells how readily two partners part at equilibrium. The molecule B1 returned a Kd of 501 nM.

With B2, the Kd turned out to be 3.66 nM.

B3: the Kd amounted to 3.09 nM.

For the molecule B4, binding was put at a Kd of 1.57 nM.

With B5, binding was characterised by a dissociation constant (Kd) of 3.2 nM.

Another experiment addresses T2, His-tagged cynomolgus monkey TIGIT (Acro Biosystems #TIT-05223) (cynomolgus monkey, UniProt A0A7N9I9V4 89-209).
T2 construct: Bought protein; also called cyno TIGIT; cynomolgus TIGIT; not shown: His tag
Described as above. As for the experimental part:
as §1
B6 gave a Kd of 3.69 nM.

Molecule B7 had a Kd of 18.8 nM.

B8 gave a Kd of 26.8 nM.

B9 gave a Kd of 2.62 nM.

The molecule B1 had a Kd of 25.3 nM.

B2 came in with a Kd of 8.69 nM.

B10 showed a Kd of 20 nM.

Molecule B3 yielded a Kd of 1.06 nM.

For the molecule B4, the Kd was 2.37 nM.

As for B5, binding was characterised by a dissociation constant (Kd) of 411 nM.

In turn, B11 returned a Kd of 6.27 nM.

Another experiment deals with T3, his-tagged human TIGIT (Acro Biosystems #TIT-H52H3) (human, UniProt Q495A1 22-141).
T3 construct: Bought protein; also called His-tagged-TIGIT (human); not shown: his tag
T3 sequence (looked up): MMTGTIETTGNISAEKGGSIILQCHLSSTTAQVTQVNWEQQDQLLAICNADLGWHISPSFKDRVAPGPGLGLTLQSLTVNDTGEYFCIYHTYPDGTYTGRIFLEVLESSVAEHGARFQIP
The description is as above. As for the experimental part: as §1
B6: the dissociation constant Kd turned out to be 0.383 nM.

Consider B7, for which the Kd is 1.08 nM.

B8 came in with a Kd of 2.19 nM.

For B9, the affinity, expressed as Kd, was 0.354 nM.

B1 displayed a Kd of 0.125 nM.

In turn, B2 displayed a dissociation constant Kd of 0.202 nM.

For the molecule B10, the Kd stood at 0.721 nM.

Regarding B3, the Kd was 0.344 nM.

On to B4, for which binding was put at a Kd of 0.639 nM.

As for B5, the affinity, expressed as Kd, was 1.04 nM.

The molecule B11 returned a Kd of 6.76 nM.

The target of a further experiment is T1, his-tagged murine TIGIT (Acro …). Briefly: ELISA, coated His-TIGIT, 1 ug/ml. In general terms: In an ELISA, binding on a coated surface is turned into a signal by an enzyme label.
As to B6, the “Elisa OD450” value stood at 0.046 OD450.

Take B7: the “Elisa OD450” value worked out at 0.046 OD450.

B8: the “Elisa OD450” value turned out to be 0.046 OD450.

Take B9: the “Elisa OD450” value is 0.046 OD450.

In the case of B1, the “Elisa OD450” value came to 1.66 OD450.

As to B2, the “Elisa OD450” value came to 0.046 OD450.

As for B10, the “Elisa OD450” value turned out to be 0.045 OD450.

B3: the “Elisa OD450” value amounted to 1.36 OD450.

Take B4: the “Elisa OD450” value stood at 1.7 OD450.

In the case of B5, the “Elisa OD450” value was found to be 2.03 OD450.

Turning to B11, the “Elisa OD450” value was determined as 0.32 OD450.

For another experiment, the target named is T2, His-tagged cynomolgus monkey TIGIT …. Briefly: ELISA, coated His-TIGIT, 1 ug/ml.
B6: the “Elisa OD450” value worked out at 0.817 OD450.

As for B7, the “Elisa OD450” value stood at 1.6 OD450.

For B8, the “Elisa OD450” value worked out at 1.59 OD450.

Turning to B9, the “Elisa OD450” value was 1.79 OD450.

B1: the “Elisa OD450” value was 1.46 OD450.

For the molecule B2, the “Elisa OD450” value was determined as 1.61 OD450.

For B10, the “Elisa OD450” value was 1.34 OD450.

For the molecule B3, the “Elisa OD450” value was found to be 1.66 OD450.

As to B4, the “Elisa OD450” value was found to be 1.5 OD450.

With B5, the “Elisa OD450” value came out at 0.685 OD450.

In the case of B11, the “Elisa OD450” value came out at 1.88 OD450.

Another experiment addresses T3, his-tagged human TIGIT (Acro Biosystems …). Briefly: ELISA, coated His-TIGIT, 1 ug/ml.
In the case of B6, the “Elisa OD450” value is 1.49 OD450.

Consider B7, for which the “Elisa OD450” value was found to be 2.23 OD450.

On to B8, for which the “Elisa OD450” value was found to be 1.94 OD450.

On to B9, for which the “Elisa OD450” value worked out at 2.07 OD450.

With B1, the “Elisa OD450” value came out at 2.1 OD450.

Regarding B2, the “Elisa OD450” value is 2.17 OD450.

As for B10, the “Elisa OD450” value worked out at 2.01 OD450.

Turning to B3, the “Elisa OD450” value was determined as 1.77 OD450.

Take B4: the “Elisa OD450” value turned out to be 1.88 OD450.

Regarding B5, the “Elisa OD450” value came out at 2.03 OD450.

Regarding B11, the “Elisa OD450” value was found to be 2.06 OD450.

A further experiment has as its target T4, human TIGIT on Jurkat cells (TIGIT/NFAT reporter Jurkat cells, BPS Bioscience #60538); Promega TIGIT Effector … (human, UniProt Q495A1 22-244).
T4 sequence (looked up): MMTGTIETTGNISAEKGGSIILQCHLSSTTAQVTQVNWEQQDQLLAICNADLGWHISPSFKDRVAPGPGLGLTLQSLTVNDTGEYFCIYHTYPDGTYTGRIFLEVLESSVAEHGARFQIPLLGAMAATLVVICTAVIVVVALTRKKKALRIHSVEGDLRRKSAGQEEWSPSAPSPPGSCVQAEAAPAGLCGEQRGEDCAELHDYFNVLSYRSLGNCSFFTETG
The experiment can be described thus: cell-based or functional assay.
On to B7, for which the “max. signal (% of 22G2)” value was 113 % of 22G2.

As for B8, the “max. signal (% of 22G2)” value is 106 % of 22G2.

Take B9: the “max. signal (% of 22G2)” value was 115 % of 22G2.

As to B1, the “max. signal (% of 22G2)” value is 130 % of 22G2.

For the molecule B2, the “max. signal (% of 22G2)” value was 126 % of 22G2.

As to B10, the “max. signal (% of 22G2)” value is 89 % of 22G2.

For the molecule B5, the “max. signal (% of 22G2)” value is 91 % of 22G2.

On to B11, for which the “max. signal (% of 22G2)” value is 57 % of 22G2.

The next experiment addresses T4, human TIGIT on Jurkat cells (TIGIT/NFAT …). The experiment can be described thus: flow cytometry, TIGIT/NFAT Jurkat cells, 10 ug/ml. (In general: In flow cytometry, cells or beads pass a laser one at a time.)
Turning to B6, the MFI was found to be 6710 MFI.

Regarding B7, the MFI worked out at 9000 MFI.

As to B8, the MFI came out at 9090 MFI.

With B9, the MFI came to 8830 MFI.

Turning to B1, the MFI was determined as 9470 MFI.

B2: the MFI came to 8330 MFI.

The molecule B10 came in with an MFI of 9000 MFI.

In turn, B3 registered an MFI of 15400 MFI.

B4: the MFI is 7590 MFI.

B5: the MFI was 10700 MFI.

Regarding B11, the MFI came out at 9660 MFI.
